No end group written: not given here.
Legend:
SEMG2(563-574) fragment = molecular target: T1, SEMG2(563-574) fragment (human); assay: ELISA, immobilized antigen SEMG2 (563-574)
T1 peptide: VAQDDHLTQQYN
Excerpt: (§1) To clearly distinguish the binding epitopes of blocking antibodies (i.e., antibodies that can inhibit the binding between SEMG2 and CD27) and non-blocking antibodies, a corresponding ELISA analysis method was established. […] Anti-mouse or anti-rabbit secondary antibodies were then used to detect the corresponding bound antibodies.

[1] = molecular target: T2, SEMG2(497-509) polypeptide QIEKLVEGKSQIQ (human); assay: ELISA, immobilized peptide QIEKLVEGKSQIQ
T2 peptide: QIEKLVEGKSQIQ
Excerpt: (§2) FIG. 20 depicts the value detected by ELISA, i.e., OD₄₅₀ absorbance. […] This experiment is used to determine the precise amino acid epitopes that different monoclonal antibodies bind to, and the relative importance of each amino acid to the binding antibody.

QIAKLVEGKSQIQ = molecular target: T3, QIAKLVEGKSQIQ (not fully specified); assay: ELISA, immobilized peptide QIAKLVEGKSQIQ
T3 construct: member of the group m41; the text speaks of glycine substitution, the sheet prints alanine
T3 peptide: QIAKLVEGKSQIQ

[2] = molecular target: T4, human SEMG2 full-length protein (human, UniProt Q02383 24-582, limits assumed); assay: biolayer interferometry (ForteBio Blitz or Gator)
T4 construct: also called SEMG2 protein; semenogelin 2
T4 sequence: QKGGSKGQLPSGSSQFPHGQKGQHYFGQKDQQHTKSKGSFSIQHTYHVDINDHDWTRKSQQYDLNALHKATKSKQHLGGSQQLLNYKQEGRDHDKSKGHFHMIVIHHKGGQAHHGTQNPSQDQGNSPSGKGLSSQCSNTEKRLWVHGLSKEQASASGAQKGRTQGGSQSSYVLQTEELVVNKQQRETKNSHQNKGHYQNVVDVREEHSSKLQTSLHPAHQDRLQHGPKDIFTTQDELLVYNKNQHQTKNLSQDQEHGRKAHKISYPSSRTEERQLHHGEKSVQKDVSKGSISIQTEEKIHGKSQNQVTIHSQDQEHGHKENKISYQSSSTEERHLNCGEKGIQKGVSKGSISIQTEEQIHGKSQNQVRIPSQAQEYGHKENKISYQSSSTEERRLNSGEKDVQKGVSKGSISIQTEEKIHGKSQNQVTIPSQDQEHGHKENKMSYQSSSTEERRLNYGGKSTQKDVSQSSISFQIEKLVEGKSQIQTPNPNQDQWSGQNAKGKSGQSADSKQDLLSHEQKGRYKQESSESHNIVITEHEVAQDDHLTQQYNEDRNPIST
Summary of the method: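 KD of antibodies binding human SEMG2 measured by biolayer interferometry, with antibody and SEMG2 in SD buffer. KD derived by binding-curve analysis.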

QIEKLVEGKSQIA = molecular target: T5, QIEKLVEGKSQIA (not fully specified); assay: ELISA, immobilized peptide QIEKLVEGKSQIA
T5 construct: alanine at this position
T5 peptide: QIEKLVEGKSQIA
Excerpt: as §2

QIEKAVEGKSQIQ = molecular target: T6, QIEKAVEGKSQIQ (not fully specified); assay: ELISA, immobilized peptide QIEKAVEGKSQIQ
T6 construct: alanine at this position
T6 peptide: QIEKAVEGKSQIQ
Excerpt: as §2

QIEKLVEGKSAIQ = molecular target: T7, QIEKLVEGKSAIQ (not fully specified); assay: ELISA, immobilized peptide QIEKLVEGKSAIQ
T7 construct: alanine at this position
T7 peptide: QIEKLVEGKSAIQ
Excerpt: as §2

SEMG2(354-403) fragment = molecular target: T8, SEMG2(354-403) fragment (human); assay: ELISA, immobilized antigen SEMG2 (354-403)
T8 peptide: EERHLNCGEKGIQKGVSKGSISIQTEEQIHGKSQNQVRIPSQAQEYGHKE
Excerpt: as §1

[3] = molecular target: T9, BSA-conjugated human SEMG2 (497-509) polypeptide (human, also: coupled to BSA, site not given here); assay: ELISA on BSA-SEMG2 (497-509), antibody titrated
T9 peptide: QIEKLVEGKSQIQ

QIEKLVEGASQIQ = molecular target: T10, QIEKLVEGASQIQ (not fully specified); assay: ELISA, immobilized peptide QIEKLVEGASQIQ
T10 construct: member of the group m41; the text speaks of glycine substitution, the sheet prints alanine
T10 peptide: QIEKLVEGASQIQ
Excerpt: as §2

[4] = molecular target: T4, human SEMG2 full-length protein; assay: ELISA, immobilized antigen SEMG2 (1-582)
Excerpt: as §1

AIEKLVEGKSQIQ = molecular target: T11, AIEKLVEGKSQIQ (not fully specified); assay: ELISA, immobilized peptide AIEKLVEGKSQIQ
T11 construct: member of the group m41; the text speaks of glycine substitution, the sheet prints alanine
T11 peptide: AIEKLVEGKSQIQ
Excerpt: as §2

QIEKLVAGKSQIQ = molecular target: T12, QIEKLVAGKSQIQ (not fully specified); assay: ELISA, immobilized peptide QIEKLVAGKSQIQ
T12 construct: member of the group m41; the text speaks of glycine substitution, the sheet prints alanine
T12 peptide: QIEKLVAGKSQIQ
Excerpt: as §2
To further precisely define the exact epitopes (specific to the level of single amino acid) to which blocking antibodies MM02, MM05, MM07, MM08, MM13, MM14 bind, corresponding ELISA analysis method was established. […] Anti-mouse or anti-rabbit secondary antibodies were then used to detect the corresponding bound antibodies.

QIEKLVEAKSQIQ = molecular target: T13, QIEKLVEAKSQIQ; assay: ELISA, immobilized peptide QIEKLVEAKSQIQ
T13 construct: member of the group m41; position 504 is glycine in SEMG2 and the sheet prints alanine there
T13 peptide: QIEKLVEAKSQIQ
Excerpt: as §2

QIEKLVEGKSQAQ = molecular target: T14, QIEKLVEGKSQAQ (not fully specified); assay: ELISA, immobilized peptide QIEKLVEGKSQAQ
T14 construct: member of the group m41; the text speaks of glycine substitution, the sheet prints alanine
T14 peptide: QIEKLVEGKSQAQ
Excerpt: as §2

SEMG2(442-453) fragment = molecular target: T15, SEMG2(442-453) fragment (human); assay: ELISA, immobilized antigen SEMG2 (442-453)
T15 peptide: IHGKSQNQVTIP
Excerpt: as §1

QIEKLAEGKSQIQ = molecular target: T16, QIEKLAEGKSQIQ (not fully specified); assay: ELISA, immobilized peptide QIEKLAEGKSQIQ
T16 construct: member of the group m41; the text speaks of glycine substitution, the sheet prints alanine
T16 peptide: QIEKLAEGKSQIQ
Excerpt: as §2

QAEKLVEGKSQIQ = molecular target: T17, QAEKLVEGKSQIQ (not fully specified); assay: ELISA, immobilized peptide QAEKLVEGKSQIQ
T17 construct: member of the group m41; the text speaks of glycine substitution, the sheet prints alanine
T17 peptide: QAEKLVEGKSQIQ
Excerpt: as §2

QIEALVEGKSQIQ = molecular target: T18, QIEALVEGKSQIQ (not fully specified); assay: ELISA, immobilized peptide QIEALVEGKSQIQ
T18 construct: member of the group m41; the text speaks of glycine substitution, the sheet prints alanine
T18 peptide: QIEALVEGKSQIQ
Excerpt: as §2

QIEKLVEGKAQIQ = molecular target: T19, QIEKLVEGKAQIQ (not fully specified); assay: ELISA, immobilized peptide QIEKLVEGKAQIQ
T19 construct: alanine at this position
T19 peptide: QIEKLVEGKAQIQ
Excerpt: as §2

[5] = molecular target: T2, SEMG2(497-509) polypeptide QIEKLVEGKSQIQ; assay: ELISA, immobilized antigen SEMG2 (497-509)
Excerpt: as §1

[6] = molecular target: T4, human SEMG2 full-length protein; assay: ELISA, plate coated with SEMG2 protein, anti-mouse secondary antibody; the EC50 table prints no unit, the axis is log (antibody concentration, nM)
[7] = molecular target: T4, human SEMG2 full-length protein; assay: ELISA on SEMG2; the EC50 table prints no unit, the axis is log (antibody concentration, nM)
[8] = molecular target: T2, SEMG2(497-509) polypeptide QIEKLVEGKSQIQ; assay: phage display screening on BSA- and KLH-coupled peptide, ELISA
Excerpt: Specifically, the preparation of polypeptide antigens and the screening of human natural antibody library were firstly performed. […] ELISA was used to select clones that bind to antigenic epitopes for preliminary screening. Different unique sequences were obtained after sequencing single colonies, sorted according to affinity sorting, and full-length antibodies were constructed from antigen-binding fragments (Fab) with relatively high affinity. The binding ability and blocking function tests were performed after purification, that is, the effect of the antibody on binding between SEMG2 and CD27 was determined by the ELISA experiment.

[9] = molecular target: T9, BSA-conjugated human SEMG2 (497-509) …; assay: ELISA, OD450 against antibody concentration (FIG. 21)

B1: MM02 (antibody, IgG2b, V domains shown)
VH: QIQLVQSGPEVKKPGETVRISCKASGYTLTTAGIQWVQKMPGKGLKWIGWINTHSGVPEYAEDFKGRFAFFLETSASTAYLQISNLKNEDTATYFCARLGLLGYWGQGTTLTVSS
VL: DILLTQSPAILSVSPGERVSFSCRASQSIGTTIHWYQQRTNGSPRLLIKYASESISGIPSRFSGSGSGTDFTLSINSVESEDIADYYCQQSNSWPWTFGGGTKLEIKR
A450 absorbance (SEMG2(563-574) fragment): 0.005 | binding result (SEMG2(563-574) fragment): no binding | OD450 absorbance [1]: 1.26 | OD450 absorbance (QIAKLVEGKSQIQ): 0.788 | Kd [2]: 1.33 nM | OD450 absorbance (QIEKLVEGKSQIA): 1.15 | OD450 absorbance (QIEKAVEGKSQIQ): 0.051 | OD450 absorbance (QIEKLVEGKSAIQ): 1.26 | A450 absorbance (SEMG2(354-403) fragment): 0.004 | binding result (SEMG2(354-403) fragment): no binding | EC50 (read off the curve) [3]: ~4 ng/mL | OD450 absorbance (QIEKLVEGASQIQ): 0.949 | A450 absorbance [4]: 1.2 | OD450 absorbance (AIEKLVEGKSQIQ): 0.45 | OD450 absorbance (QIEKLVAGKSQIQ): 0.48 | OD450 absorbance (QIEKLVEAKSQIQ): 0.766 | OD450 absorbance (QIEKLVEGKSQAQ): 0.894 | A450 absorbance (SEMG2(442-453) fragment): 0.001 | binding result (SEMG2(442-453) fragment): no binding | OD450 absorbance (QIEKLAEGKSQIQ): 0.928 | OD450 absorbance (QAEKLVEGKSQIQ): 0.541 | OD450 absorbance (QIEALVEGKSQIQ): 0.47 | OD450 absorbance (QIEKLVEGKAQIQ): 0.173 | A450 absorbance [5]: 1.18 | EC50 [6]: 0.176 nM

B2: H88-93 (antibody, V domains shown)
VH: QITLKESGPTLVKPTQTLTLTCNFSGFSLTTSGVGVAWIRQPPGKALEWLALIYWDDDQRYSPSLKSRLSVTKHTSKDQVVLTMTNVGPVDTATYYCAHLSYGPGWGYYMDVWGNGTMVTVSS
VL: EIVLTQSPGTLSLSPGERASLSCRASQSVRNNYLAWYQQKPGQAPRLLIFGASNRATGIPDTFSGSGSGTDFTLTISRLEPEDFAVYYCQQYGHSPITFGQGTRLEIK
notes: Fully human full-length antibody built from a phage Fab
Kd [2]: 4.6 nM | EC50 [7]: 0.0636 nM | binding result [8]: binds | binding result [9]: binds
